Patent US7521054

Target: mesothelin (UniProt Q13421)
Experiment: cell-based or functional assay

Sequence of UniProt Q13421 (Q13421 other isoform, or with tags, fused parts or gaps limits assumed): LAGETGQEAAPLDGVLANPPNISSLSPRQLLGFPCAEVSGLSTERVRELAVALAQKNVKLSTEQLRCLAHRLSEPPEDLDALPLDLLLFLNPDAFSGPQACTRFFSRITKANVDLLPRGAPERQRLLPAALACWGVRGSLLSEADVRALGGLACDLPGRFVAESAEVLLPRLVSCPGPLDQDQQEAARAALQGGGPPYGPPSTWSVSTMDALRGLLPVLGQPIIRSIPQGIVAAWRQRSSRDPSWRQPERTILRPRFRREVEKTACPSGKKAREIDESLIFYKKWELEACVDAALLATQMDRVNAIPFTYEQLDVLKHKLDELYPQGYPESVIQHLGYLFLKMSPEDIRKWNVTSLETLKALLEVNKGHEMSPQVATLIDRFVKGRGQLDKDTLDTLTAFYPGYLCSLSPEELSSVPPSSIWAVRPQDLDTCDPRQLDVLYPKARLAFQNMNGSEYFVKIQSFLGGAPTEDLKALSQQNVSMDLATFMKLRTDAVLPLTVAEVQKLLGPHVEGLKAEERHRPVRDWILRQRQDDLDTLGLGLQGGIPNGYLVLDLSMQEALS

SS1(dsFv)-PE38 (from UniProt P11439 278-389; P11439 406-638)
IC50 (NG/ML), cytotoxic activity on A431-K5 cells: 0.63 ng/mL
